Laboratory results as given in US7871782B2, “Specific binding members against synaptophysin” (The University Court of the University of Aberdeen, priority 2004, dated 2011).

B1: FITC-C1-3 scAb: C1-3 scAb labelled with FITC (conjugate)
scFv: MAEVQLLESGGGLVQPGGSLRLSCAASGFTFSSYAMSWVRQAPGKGLEWVSTIAASGPSTGYADSVKGRFTISRDNSKNTLYLQMNSLRAEDTAVYYCAKTTAKFDYWGQGTLVTVSSGGGGSGGGGSGGGGSTDIQMTQSPSSLSASVGDRVTITCRASQSISSYLNWYQQKPGKAPKLLIYSASRLQSGVPSRFNGSGSGTDFTLTISSLQPEDFATYYCQQLQRKPTTFGQGTKVEIKRGAAAPSVFIFPPSDEQLKSGTASVVCLLNNFYPREAKVQWKVDNALQSGNSQESVTEQDSKDSTYSLSSTLTLSKADYEKHKVYACEVTHQGLSSPVTKSFNRGESHHHHHH

Tests used:
HSCs = experiment: Effect of scAb incubation on HSC viability (attachment, protein assay); assay type: cell-based, human; details: 3 hours incubation, 5 μg scAb or indicated chemical, FIG. 12
Procedure: Effect of scAb incubation on HSC viability. HSCs seeded into 24 well plates were incubated in 0.3 mls culture medium containing 5 μg scAb or the indicated-chemical. Cells were incubated for 3 hours prior to removal of medium and washing with 1×PBS. Attachment (as a measure of viability) was determined by a direct protein assay in the culture wells.

human HSCs [1] = experiment: HSC viability with gliotoxin and C1-3-gliotoxin conjugate; assay type: cell-based; details: 1.5 uM gliotoxin; 10 ug C1-3-gliotoxin conjugate in 500 ul medium; FIG. 14
Procedure: HSC viability. Human HSCs in 24 well plate culture were treated with 500 ul medium containing either DMSO vehicle; 1.5 uM gliotoxin (750 pmoles); 20 ul C1-3 scAb at 1 mg/ml (20 ug C1-3 scAb); or 20 ul C1-3-gliotoxin conjugate at 0.5 mg/ml (10 ug C1-3 scAb-250 pmoles C1-3 scAb*/1000 pmoles gliotoxidn). *0.5 mg C1-3 protein/ml stock=12.5 uM=12.5 nmoles/ml=12.5 pmol/ul

human HSCs [2] = experiment: Fluorescence microscopy without fixation: effect of peptides and monensin on FITC-C1-3 scAb binding; assay type: cell-based; details: 10 μg scAb, 1 hour, no fixation, FIG. 13
Procedure: Effect of synaptophysin peptides and monensin on FITC-C1-3 scAb binding to human HSCs. Human HSCs seeded into 24 well plates were washed and incubated in 500 μl Hepes/HBSS per well for 1 hour containing either: 10 μg C1-3 scAb; 10 μg FITC-C1-3 scAb; 10 μg FITC-C1-3 scAb and 0.25 nmoles of the target peptide; 10 μg FITC-C1-3 scAb and 2.5 nmoles of the target peptide; 10 μg FITC-C1-3 scAb and 25 nmoles of the target peptide; 10 μg FITC-C1-3 scAb and 25 nmoles of the target peptide P1; 10 μg FITC-C1-3 scAb and 2.5 μM monensin; 10 μg FITC-C1-3 scAb and 15 μM monensin; 10 μg FITC-3A8 scAb (scAb raised to microcystin and not expected to bind to HSCs). Cells incubated with monensin were preincubated for 10 minutes. Just prior to addition of scAb, the medium was changed and cells were re-dosed with monensin. […] Bar=μm. Monen=monensin; P1=the […] peptide (SEQ ID NO 27); P2=the target peptide.
HSCs seeded into 24 well plates were washed with Hepes/HBSS and then incubated at 37° C. in 500 μl/well Hepes/HBSS containing 10 μg scAb with or without additional compounds. After 1 hour, the cells were washed 3 times with 500 μl Hepes/HBSS. Cells were analysed using an Axiovert 100 microscope (Zeiss, Germany) using filter set #9 (BP 450-490 nm; LP 515 nm).

COS-7 cells = experiment: Fluorescence binding to cells; assay type: cell-based
[3] = system: human hepatic stellate cells; experiment: Fluorescence microscopy of FITC-labelled scAb with cells; assay type: cell-based
Procedure: (§1) FITC-C1-3 scAb was tested for its ability to interact with hepatic stellate cells in culture by fluorescence microscopy. Human hepatic stellate cells were seeded (1×10^3 cells per chamber) on chamber slides (Nunclon, Naperville) in complete medium prior to experimentation. Cells were washed twice in phosphate buffered saline (PBS) and incubated in 500 μl Hepes/HBSS buffer (0.14M NaCl, 5.4 mM KCl, 0.34 mM Na2HPO4, 0.94 mm KH2PO4, 5.6 mM glucose, 1 mM CaCl2, 6 mM HEPES, 4 mM NaHCO3 pH7.4) containing 10 μg scAb or FITC-C1-3 scAb for 1 h at room temperature in the dark. The cells were then washed in PBS and mounted with Vectashield mounting medium (Vector laboratories, Burlingame, Calif.) containing 4′,6′ diamindino-2 phenylindole (DAPI) to stain cell nuclei and coverslips applied. Florescence microscopy was carried out using a Zeiss Axeola II microscope with a Photometrics Sensis camera, and data captured using the Smart Capture programme. Human hepatocytes (UK Human Tissue Bank) were originally cultured in a collagen-coated 24 well plate (1×10^5/well) and maintained in William's medium E supplemented with 80 units/ml penicillin and 80 μg/ml streptomycin.

human hepatocytes = experiment: as above; assay type: cell-based
Procedure: as §1

human HSCs [4] = experiment: Uptake of scAb and conjugates by human HSCs in culture (Western blot of medium); assay type: cell-based; details: 5 μg scAb in 0.3 mls medium, FIG. 11
Procedure: Uptake of C1-3 scAb and C1-3-conjugates by human HSCs in culture. HSCs seeded into 24 well plates were incubated in 0.3 mls culture medium containing 5 μg scAb. Samples of medium were taken at the indicated times and subjected to Western blotting to detect scAb using HRP-conjugated anti-human Cκ light chain antibody (UPPER PANEL) and serum albumin (LOWER PANEL) as a loading control. Results typical of 4 separate experiments.

[5] = system: hepatic stellate cell and hepatocytes co-cultured; assay type: cell-based, human
Procedure: For co-culture experiments, hepatic stellate cells were seeded into hepatocytes cultures (1×10^3 cells per well) and cultured for 24 h prior to experimentation. The C1-3 or FITC-C1-3 scAb was incubated as outlined for pure hepatic stellate cell cultures except that after 1 hour incubation and washing, the cells were harvested by trypsinisation and centrifugation at 1000 rpm for 5 min. The cell pellet was then resuspended in 0.4% formaldehyde/10^6 cells, applied onto glass slides by cytocentrifugation and mounted with Vectashield containing DAPI. Slides were viewed by fluorescence microscopy as before.

HepG2 cells = experiment: Fluorescence binding to cells; assay type: cell-based
human HSC = experiment: FACS analysis of human HSC cultures; assay type: cell-based; details: co-staining under native conditions prior to fixing, 1 hour 37° C., FIG. 10
Procedure: FACS analysis of human HSC incubated without (UPPER PANEL) or with (LOWER PANEL) primary antibodies—i.e. FITC-C13 scAb (FITC) and a mouse monoclonal antibody to α-smooth muscle actin (αsma-APC). Anti-α-smooth muscle actin antibody was detected using a biotin conjugated secondary antibody followed by fluorophore-streptavidin conjugate incubation as outlined in the Methods section. Figures represent the percentage of cells in each quadrant. Data are typical of 3 separate cell preparations.
FITC-C1-3 scAb was added to culture medium (200 μg/10 mls) and incubated with a confluent (10 cm diameter dish) culture of HSCs for 1 hour at 37° C. The medium was then removed and the cells were washed in PBS. The cells were then detached from the culture substratum non-enzymatically using cell dissociation solution (Sigma, Poole, UK), pelleted by centrifugation and fixed/permeabilised using BD cytofix/cytoperm (BD Biosciences, Oxford, UK). After 15 minutes, the cells were washed in 0.5 mls 1× wash/perm buffer (BD Biosciences, Oxford, UK) and incubated with a mouse anti-α-smooth muscle actin monoclonal antibody (Sigma, Poole, UK) diluted in 1× wash/perm buffer. […] The cells were analysed by flow cytometry (LSR I, BD, Oxford, UK). […]

Row | Molecule | toxicity to HSCs (attachment as measure of viability) (HSCs) | killing of human HSCs (human HSCs [1]) | association of FITC-labelled scAb with HSCs (human HSCs [2]) | fluorescence binding to COS-7 cells (COS-7 cells) | green fluorescence associated with hepatic stellate cells ([3]; 10 μg scAb, 1 h, room temperature) | location of fluorescence in hepatic stellate cells ([3]; mounting medium with DAPI) | green fluorescence associated with human hepatocytes (human hepatocytes) | association with HSCs: change of culture medium concentration of scAb (human HSCs [4]) | green fluorescence in hepatic stellate cell/hepatocyte co-cultures [5] | fluorescence binding to HepG2 cells (HepG2 cells) | binding to α-smooth muscle actin positive human HSCs (FACS) (human HSC)
1 | CN1C(=O)[C@]23CC4=CC=C[C@H](O)[C@H]4N2C(=O)[C@@]1(CO)SS3 [gliotoxin] | kill HSCs | killed human HSCs |  |  |  |  |  |  |  |  | 
2 | B1 |  |  | associated with HSCs | not detected | fluorescence was associated with hepatic stellate cells | fluorescence was located around the nuclear and cell membranes | no associated green fluorescence | reduction in culture medium concentrations | Fluorescence was observed on stellate cells whilst hepatocytes consistently failed to display detectable levels of associated green fluorescence | not detected | all the cells bound C1-3 scAb
